Source: article PMC3406077 (2012)

The binders below were run against laminin isolated from Engelbreth-Holm-Swarm murine sarcoma basement membrane (assay: ELISA). Settings: chain shown with the change; 20 µg protein per well; laminin 0.5 µg per well; parent: est. 3.1; read off a plot.

Binder | response (O.D. (492 nm))
wild-type full-length (C24-P237) pallilysin, O83732 H198A (protein) CFQHGHVPPRRIPPHDTFGALPTAALPSNARDTAAHPSDTADNTSGSSTTTDPRSHGNAPPAPVGGAAQTHTQPPVQTAMRIALWNRATHGEQGALQHLLAGLWIQTEISPNSGDIHPLLFFDREHAEITFSRASVQEIFLVDSAHTHRKTVSFLTRNTAISSIRRRLEVTFESAEVIHVRAVEDVARLKIGSTSMWDGQYTRYHAGPASAPSP | 3.1
wild-type full-length (C24-P237) pallilysin, O83732 H202A (protein) CFQHGHVPPRRIPPHDTFGALPTAALPSNARDTAAHPSDTADNTSGSSTTTDPRSHGNAPPAPVGGAAQTHTQPPVQTAMRIALWNRATHGEQGALQHLLAGLWIQTEISPNSGDIHPLLFFDREHAEITFSRASVQEIFLVDSAHTHRKTVSFLTRNTAISSIRRRLEVTFESHEVIAVRAVEDVARLKIGSTSMWDGQYTRYHAGPASAPSP | 3
wild-type full-length (C24-P237) pallilysin, O83732 E199A (protein) CFQHGHVPPRRIPPHDTFGALPTAALPSNARDTAAHPSDTADNTSGSSTTTDPRSHGNAPPAPVGGAAQTHTQPPVQTAMRIALWNRATHGEQGALQHLLAGLWIQTEISPNSGDIHPLLFFDREHAEITFSRASVQEIFLVDSAHTHRKTVSFLTRNTAISSIRRRLEVTFESHAVIHVRAVEDVARLKIGSTSMWDGQYTRYHAGPASAPSP | 3.3
